Experimental data from paper PMC9638933.

Tests used:
[1] = target: Kumin (M. tuberculosis Ku without the extended C-terminus) (M. tuberculosis); assay: SEC-MALS; 50 uM protein in 50 mM HEPES pH 8.0, 1 mM EDTA, 200 mM NaCl; Superdex 200 Increase 10/300 GL; MiniDAWN and Optilab
[2] = target: Kumin (M. tuberculosis Ku without the extended C-terminus) (M. tuberculosis); assay: BLI; Octet RED96, 37°C, 1000 rpm; biotinylated Ku (25 ug/ml) loaded on streptavidin biosensors; LigD, LIG or POL as analyte (12.5 ug/ml), 300 s association, 300 s dissociation; 1x kinetics buffer (0.1% BSA, 0.02% Tween-20, 0.05% sodium azide in PBS); grouped global fit
[3] = target: the molecule itself; assay: SEC-MALS; 50 uM protein; 50 mM HEPES pH 8.0, 1 mM EDTA, 200 mM NaCl; Superdex 200 Increase 10/300 GL
[4] = target: the molecule itself; assay: SEC-MALS; 50 uM protein in 50 mM HEPES pH 8.0, 1 mM EDTA, 200 mM NaCl; Superdex 200 Increase 10/300 GL; MiniDAWN and Optilab
[5] = target: T1, LigD (wildtype), Mycobacterium tuberculosis (M. tuberculosis, UniProt P9WNV3 1-759); assay: BLI; Octet RED96, 37°C, 1000 rpm; biotinylated Ku (25 ug/ml) loaded on streptavidin biosensors; LigD, LIG or POL as analyte (12.5 ug/ml), 300 s association, 300 s dissociation; 1x kinetics buffer (0.1% BSA, 0.02% Tween-20, 0.05% sodium azide in PBS); grouped global fit; conditions: both partners purified
T1 construct: The His tag is TEV-cleavable; also called wildtype LigD

LigD = LigD (UniProt P9WNV3 1-759); assay: fluorescence polarization; EMSA: 50 mM Tris-HCl pH 8.0, 50 mM NaCl, 1 mM DTT, 5 mM MgCl2, 4% glycerol, 0.025 mg/ml BSA, 10 nM DNA, 30 C 20 min; FP: 10 mM Tris-HCl pH 8, 10 mM NaCl, 10% glycerol, 1 mM TCEP, 50 nM DNA, 30 C; ternary EMSA: 20 mM Tris-HCl pH 8.0, 5 mM MgCl2, 5% glycerol, 37 C; bridging: 20 mM Tris-HCl pH 7.5, 50 mM KCl, 5 mM EDTA, 1 mM DTT, 5% glycerol, 40 ug/ml BSA, room temperature; conditions: protein: recombinant; tags: His (Ni-NTA purified; pMCSG7); label: 5' 6-FAM on strand 1; blunt
KuWT [6] = target: T2, KuWT (Mycobacterium tuberculosis, UniProt P9WKD9 1-273); assay: EMSA; 5 mM Mg2+; EMSA: 50 mM Tris-HCl pH 8.0, 50 mM NaCl, 1 mM DTT, 5 mM MgCl2, 4% glycerol, 0.025 mg/ml BSA, 10 nM DNA, 30 C 20 min; FP: 10 mM Tris-HCl pH 8, 10 mM NaCl, 10% glycerol, 1 mM TCEP, 50 nM DNA, 30 C; ternary EMSA: 20 mM Tris-HCl pH 8.0, 5 mM MgCl2, 5% glycerol, 37 C; bridging: 20 mM Tris-HCl pH 7.5, 50 mM KCl, 5 mM EDTA, 1 mM DTT, 5% glycerol, 40 ug/ml BSA, room temperature; conditions: protein: recombinant; tags: His (Ni-NTA purified; pMCSG7); chain copies: 2; label: 5' 6-FAM on strand 1; blunt
T2 sequence: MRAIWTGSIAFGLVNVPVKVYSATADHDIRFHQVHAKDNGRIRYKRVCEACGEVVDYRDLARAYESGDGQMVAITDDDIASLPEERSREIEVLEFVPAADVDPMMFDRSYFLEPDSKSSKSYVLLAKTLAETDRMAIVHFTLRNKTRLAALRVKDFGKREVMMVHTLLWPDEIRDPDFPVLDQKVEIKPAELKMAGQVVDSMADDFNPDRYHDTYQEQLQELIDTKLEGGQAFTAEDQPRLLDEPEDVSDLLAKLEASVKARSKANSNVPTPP

Kumin [7] = target: T3, Kumin (Mycobacterium tuberculosis, UniProt P9WKD9 1-259); assay: as above; conditions: protein: recombinant; tags: His (Ni-NTA purified; pMCSG7); chain copies: 2; label: 5' 6-FAM on strand 1; blunt
T3 sequence: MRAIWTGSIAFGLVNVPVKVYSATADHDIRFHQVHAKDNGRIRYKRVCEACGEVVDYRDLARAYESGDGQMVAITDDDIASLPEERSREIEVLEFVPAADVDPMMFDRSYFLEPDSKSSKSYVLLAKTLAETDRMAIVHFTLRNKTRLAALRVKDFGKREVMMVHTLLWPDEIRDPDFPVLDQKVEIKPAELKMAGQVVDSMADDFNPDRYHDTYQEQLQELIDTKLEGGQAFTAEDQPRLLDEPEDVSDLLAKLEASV

Kucore [8] = target: T4, Kucore (Mycobacterium tuberculosis, UniProt P9WKD9 1-238); assay: as above; conditions: protein: recombinant; tags: His (Ni-NTA purified; pMCSG7); chain copies: 2; label: 5' 6-FAM on strand 1; blunt
T4 sequence: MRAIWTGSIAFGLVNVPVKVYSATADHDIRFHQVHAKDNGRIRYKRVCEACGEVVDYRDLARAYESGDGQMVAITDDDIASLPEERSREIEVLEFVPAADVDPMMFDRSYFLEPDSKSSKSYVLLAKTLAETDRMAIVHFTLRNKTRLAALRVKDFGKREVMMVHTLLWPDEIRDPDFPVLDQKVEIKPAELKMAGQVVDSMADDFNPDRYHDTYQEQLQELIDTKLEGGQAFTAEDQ

KuWT [9] = target: T2, KuWT; assay: EMSA; EMSA: 50 mM Tris-HCl pH 8.0, 50 mM NaCl, 1 mM DTT, 5 mM MgCl2, 4% glycerol, 0.025 mg/ml BSA, 10 nM DNA, 30 C 20 min; FP: 10 mM Tris-HCl pH 8, 10 mM NaCl, 10% glycerol, 1 mM TCEP, 50 nM DNA, 30 C; ternary EMSA: 20 mM Tris-HCl pH 8.0, 5 mM MgCl2, 5% glycerol, 37 C; bridging: 20 mM Tris-HCl pH 7.5, 50 mM KCl, 5 mM EDTA, 1 mM DTT, 5% glycerol, 40 ug/ml BSA, room temperature; conditions: protein: recombinant; tags: His (Ni-NTA purified; pMCSG7); chain copies: 2; label: 5' 6-FAM on strand 1; blunt
Kumin [10] = target: T3, Kumin; assay: as above; conditions: protein: recombinant; tags: His (Ni-NTA purified; pMCSG7); chain copies: 2; label: 5' 6-FAM on strand 1; blunt
Kucore [11] = target: T4, Kucore; assay: as above; conditions: protein: recombinant; tags: His (Ni-NTA purified; pMCSG7); chain copies: 2; label: 5' 6-FAM on strand 1; blunt

LigD, sequence (P9WNV3 whole entry): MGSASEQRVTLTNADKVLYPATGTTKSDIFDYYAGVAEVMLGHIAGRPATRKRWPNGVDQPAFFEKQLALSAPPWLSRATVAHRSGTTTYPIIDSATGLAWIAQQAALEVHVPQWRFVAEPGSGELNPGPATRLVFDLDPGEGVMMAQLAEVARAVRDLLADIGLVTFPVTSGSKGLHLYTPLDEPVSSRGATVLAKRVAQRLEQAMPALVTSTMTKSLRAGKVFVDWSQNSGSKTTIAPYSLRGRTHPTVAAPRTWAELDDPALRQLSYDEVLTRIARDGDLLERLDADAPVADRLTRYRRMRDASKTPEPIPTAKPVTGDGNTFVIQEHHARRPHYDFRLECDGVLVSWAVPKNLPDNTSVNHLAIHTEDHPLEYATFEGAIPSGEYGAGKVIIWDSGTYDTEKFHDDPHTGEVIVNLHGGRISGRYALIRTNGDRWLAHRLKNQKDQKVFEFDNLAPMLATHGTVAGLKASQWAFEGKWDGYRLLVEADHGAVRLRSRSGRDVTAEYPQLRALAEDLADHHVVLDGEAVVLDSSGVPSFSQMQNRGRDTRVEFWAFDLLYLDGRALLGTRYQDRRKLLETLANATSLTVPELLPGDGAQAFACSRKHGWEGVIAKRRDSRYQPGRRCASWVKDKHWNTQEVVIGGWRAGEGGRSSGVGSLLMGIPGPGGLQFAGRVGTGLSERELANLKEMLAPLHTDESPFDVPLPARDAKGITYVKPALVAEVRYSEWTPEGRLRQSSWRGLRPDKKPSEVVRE
T1 sequence (P9WNV3 whole entry): as above

Kumin (M. tuberculosis Ku without the extended C-terminus) (domain or fragment)
stoichiometry N [1]: 2

LigD (wildtype), Mycobacterium tuberculosis (from UniProt P9WNV3 1-759) (enzyme)
Kd [2]: 288 nM

B1: Mycobacterium tuberculosis Kucore (entire C-terminus removed) (domain or fragment)
chain: T4 sequence
modifications: in BLI only: biotin (NHS-LC-Biotin) on K19, K37, K45, K117, K120, K127, K154, K158, K184, K188, K193, K226
notes: Ku of M. tuberculosis, UniProt P9WKD9, residues 1-238 (core domain); The His tag is TEV-cleavable (pMCSG7) and no cleavage is described; The protein was not biotinylated for SEC-MALS; also called Ku core domain
stoichiometry N [3]: 2

B2: Ku_(core) (M. tuberculosis Ku core domain, entire C-terminus removed) (domain or fragment)
chain: T4 sequence
modifications: biotinylated at multiple sites with NHS-LC-Biotin for BLI only (sites listed in Supplementary Table S3)
stoichiometry N [4]: 2 | Kd [5]: 200 nM

B3: 30 bp dsDNA (dsDNA)
DNA 1: CAGGAGGTGTAGGGAAGGGAATGTTGTCTG
DNA 2: CAGACAACATTCCCTTCCCTACACCTCCTG
binding result (LigD): binds | Kd (KuWT [6]): 1180 ± 90 nM

B4: 20 bp dsDNA (dsDNA)
DNA 1: CAGGAAGGGAATGTTGTCTG
DNA 2: CAGACAACATTCCCTTCCTG
binding result (LigD): binds | binding result (KuWT [6]): binds | binding result (Kumin [7]): binds | binding result (Kucore [8]): binds

B5: Mycobacterium tuberculosis Ku, wildtype (natural protein)
chain: T2 sequence
notes: The His tag is TEV-cleavable (pMCSG7) and no cleavage is described; also called KuWT
stoichiometry N [3]: 2

B6: 15 bp dsDNA (dsDNA)
DNA 1: CAGGAAGGGAATGTT
DNA 2: AACATTCCCTTCCTG
binding result (LigD): binds | Kd (KuWT [6]): 1630 ± 300 nM

B7: Mycobacterium tuberculosis Kumin (extended C-terminus removed) (domain or fragment)
chain: T3 sequence
modifications: in BLI only: biotin (NHS-LC-Biotin) on K19, K37, K45, K117, K120, K127, K154, K184, K188, K193, K226, K254
notes: Ku of M. tuberculosis, UniProt P9WKD9, residues 1-259 (core domain and minimal C-terminal region); The His tag is TEV-cleavable (pMCSG7) and no cleavage is described; The protein was not biotinylated for SEC-MALS
stoichiometry N [3]: 2

B8: 10 bp dsDNA (dsDNA)
DNA 1: CAGGAAGGTG
DNA 2: CACCTTCCTG
Kd (LigD): 1100 ± 70 nM | binding result (KuWT [9]): no binding | binding result (Kumin [10]): no binding | binding result (Kucore [11]): no binding
